In the DeepSol protein solubility set:

test: soluble on expression in E. coli; label from the status in PepcDB or PDB records

Sequence | soluble on expression in E. coli
MGSDKIHHHHHHMCRWLAYSGRSVPLEAVLFQPEHSLIDQSLNARLGHTTTNGDGFGVGWYGRHSEVPFRYRCLHPAWSDTNLRETARAVRAPLFVAHVRAATGTPTQETNCHPFRFGRWLFVHNGLIREFPLLRRDLMMAVSPQLFRWIEGSTDSEIMFFLALTFGLERDPRAALEQMVGLIEEVGHRYDVEHPINMTVCVTDGQQIVAVRYSSEADSRSLFHSTSFRQLRELYPDDPRIIAAGDDAFLVLSEPLIDVQGVWQEIPEATILVGRAGVIDYSRFTPRMPELSS | not soluble
AHHHHHHGSKKFPAYLASWEDIENWAKAGAWKVLESGWMPDVIVGLARGGWIAARLYCDYLGVKDLVSIKVEHWGVTATPDGRARLKYGAQYDFEGKKVLIVDDITDTGESMSLAYEYMKSRNPAEIRTATLLNIKGSKFVPDYYAKDIDWVWVVFPWNFVEDMINLTNNLFEEKDKLTTDEIISLFKELHGIEVPREKLEEALRMAEKRKIFKFENGFWTKV | soluble
YENIQNIEDFYRFINAHALAVVHIMRDNCTVCHAVLPQIQDLLKDYPKAQLGVINQSNVEEIAGELSIFTVPVDLIFLKGKEMHRQARFIDMQSFEKQLYMMQNAID | soluble
SGPWANICAGKSSNEIRTCDRHGCGQYSAQRSQRPHQGVDVLCSAGSTVYAPFTGMIVGQEKPYQNKNAINNGVRISGRGFCVKMFYIKPIKYKGPIKKGEKLGTLLPLQKVYPGIQSHVHIENCDSSDPTAYL | soluble
MSLHQILVVDDDAVSQQFLVMVLQRLGYANVVVASDGLDALIQLDAGDRRFDVIFCDLDMPRMDGIEFVRHLGERAFQGKLLISSGFDERVLESVAELARMYDLWLAGVLPKPINHQALQRLINQAPPASRHPTHAVAPPTEDELRAAIGKGEIRPFLQPQVLLADGRIRSAEVLARWQHPRLGLIGPQQFIQLAEHSSLITELTLQLLKQAAASMDRLPSETPMEMSLNLSVASLNEIALVSQFERILNDCGFPFSRLTVEVTETGLMANPTRALELLTRLRLKGARLAIDDFGTGFASMDRLSRIPFTELKIDKSFVIDAARNPTNLSIVRASAELGRQLGLVVVAEGVATESEWRLCQQLDVEIVQGSFISPPVDAESFRRWLLKHRGEGHHHHHH | soluble
MQFFISSAILFSYAFCQSIPNVILTGEPRVVARRILNVDMKAAQQLALPDDQQHVRYQVNVVRNQENPSDSTYLTGERTPVTVYRRILRPARITFTGDGVITDSWQGTSDAVEMESWTLNRRPTIDGSFVQPTQNQQGAFH | not soluble
MVTAPPTDYFASFTTNDDALVLASVSSDAELELLNVWLRTHRREHPDSKVDVLQLPAADEPAPGDLARLVEELEADENRLVVPVRVFWVPGGLPTRLKVVALMSGRDTYRPPEILQRRILRKDPSRARVVAGEPAKVSELRKQWSETTVGENPRDFAHFVLRRAVLAIERVELRLLGPEYKSPRLVKPEMMASSRFREGLAKIPGATPEKAGEMLDELSTGWSRFSVDLIPSLGRAIFSRGFDPRIDYDRIEIEQMRHALEQHPAVLLFSHRSYLDGVIVPVAMQENRLPPVHTFAGINLSFGIMGPIFRHSGVIFLRRKLDDPLYKYVLRQYVGYLVEKRFNLNWSIEGTRSRTGKMLPPKLGLLAYVADAYLDGRSDDILLQPVSISFDQLHETAEYAEYARGGEKRPEGLSWLYNFVKAQGERNYGKIYVRFPEAVSMRQYLGEPHGPLVEDEAAKRLAMQKMAIEVAWRILRVTPVNATNLVSALLLTARGVALTLEQLHQALQDSLDYLEQKKTPVTNSAMRLRTLEGVRAAVDALSGGHPVTCVDTGREPVWRIAPENELEAAFYRNSLIHAFLETSLVELALAYAARTADAEGDPLQAFWTQVVRLRDLLKFDFYFADSAAFHQNVAEEMSWHADWEQQVRAGRDGIETLMRAKRPLLADAMLRPYFEAYTIVADVLRDAPAEIAEKDLTKLALGVGQQYVAQGRVRNNESVSALLFATARQVAADQGLLEHGPDLMEQRRAFRDELRGILRDLDTVDRYARELFAARERERRTKRDEAVLEHHHHHH | soluble
MFLEKDMQKNTLWFNGLSMDDVDKVGGKNASLGEMVSNLANVGVSVPNGFATTSYAFNQFLDHEGLDERIHQLLDELDVDDVEALRKTGATIRQWVLQAPFPADLEQEIRNNYEELIEGNTELSVAVRSSATAEDLPDASFAGQQETFLNVKGIDAVLEATKHVYASLFNDRAISYRVHQGFDHRGISLSAGIQRMVRSDKASSGVMFTLDTESGFDQVVFITSSWGLGEMVVQGAVNPDEFYVHKPMLEAGEHPIVKKTFGSKLIKMIYSNNQEIGKQVDIIDTSEEERNTFSLNEEEIKELAKQAMIIEKHYQRPMDIEWAKDGIDGKLYIVQARPETVCSQTEQNVIERYELNNKADVLVEG | not soluble
MYDSAPSDPVPFARLRFRDLQLLREIAAARSLTAVAERRGLTQPALSRTLRDIEAELGAQVFSRERGARLAPTAVGRHILARVDLLMADAGALHSELRAFEEGRGAHLRLGVIPFVSNALMQEVLKTLTGEPLRMSVSTFEGATDQLVLALRRQELDIVIGRLSADAGADTLAQEGLFSQTASIVMSEALYERRASLTLASLHGHPWVLPPASSPTRMAFVEAFVSRNAVAPVARIETTSARLVHSAISSNMASLGLLPLDIGQELERWGGVRCKAFPVPFRMPTVGLIVLAERRARAMNRVVRDVLHRCIARVAAYA | not soluble
MSSAAADESDAVLENLIAKEILPQTGNWEGTEEFLNRIVQVLLKYIKDQNDRDQKILEFHHPDKMQMLMDLSIPEKPESLLKLVKSCEDVLRLGVRTGHPRFFNQISCGLDLVSMAGEWLTATANTNMFTYEIAPVFILMEKSVMARMWEAVGWDPEKADGIFAPGGAIANLYAMNAARHQLWPRSKHLGMKDIPTLCCFTSEDSHYSIKSASAVLGIGADYCFNIPTDKNGKMIPEALEAKIIECKKEGLTPFFACCTAGSTVYGAFDPLERVANICERHKLWFHVDAAWGGGMLLSPEHRYKLAGIERANSVTWNPHKLMGALLQCSACLFRQDGLLFQCNQMSADYLFQQDKPYDVSFDTGDKAIQCGRHNDVFKLWLMWKSKGMEGYRQQINKLMDLANYFTRRIKETEGFELIIENPEFLNICFWYVPSKIRNLEPAEMRARLEKIAPKIKAGMMQRGTTMVGYQPDKQRPNFFRMIISNQAITREDLDFLIKEIVDIGESLE | not soluble
MTTSIQRRISIVIPCLNDAVLLEQCLSSIVAQTLQPEEVIVVDNGSTDNSVEVANRMGARVVHEPLQGITWASAAGYNSARGDLIVRFDADCVIPPDHLSQVNAIWNRTEETPGRTIVALTGTGSFDIPGRMGEWLALCYLGAYRWSTKQALGHYPIFGSNSVISRQWWEDVKDQITLSETFVHEDMYFSFFVRPHETVWFEKNLKLIMHPRALMGVRQSFIRLVRGFYTIKIAWKREPVHQRLESRRDWTLEHHHHHH | not soluble
METKDLIVIGGGINGAGIAADAAGRGLSVLMLEAQDLACATSSASSKLIHGGLRYLEHYEFRLVSEALAEREVLLKMAPHIAFPMRFRLPHRPHLRPAWMIRIGLFMYDHLGKRTSLPGSTGVRFGADSVLKPEIVRGFEYSDCWVDDARLVLANAQMVVRKGGEVLTRTRATAARRENGLWIVEAEDIDTGKKYVWQARGLVNATGPWVKQFFDEGMHLPSPYGIRLIKGSHIVVPRVHNQKQAYILQNEDKRIVFVIPWMEEFSIIGTTDVEYKGDPKAVKIEESEINYLLKVYNAHFQKQLGRDDIVWTYSGVRPLCDDESDSPQAITRDYTLDIHDENGKAPLLSVFGGKLTTYRKLAEHAMEKLASYYPGIGPAWTKTCVLPGGDIDGSREDYAAKLRRRYPFLTESLARHYSRTYGSNTEWILGEATSLLDLGEDFGHEFYEAELKYLVDHEWVRRTEDAIWRRTKEGMWLTAEQQSRITQWLAAYVEKHQLSMAS | not soluble
